From patent US20040132093A1 (AVENTIS PHARMA S A, published 2004) come the findings set out here.

Test [1] addresses T1, protein from fusion between YFP and the insulin receptor (Boute et al., 2001) (UniProt P06213 28-1382).
T1 construct: whole, on cells; Specificity control in BRET; also called insulin receptor-YFP; not shown: YFP
The experiment in a line: BRET in living cells coexpressing the fusion proteins. In general terms: BRET reads energy transfer from a luciferase to a nearby fluorophore.

The target of test [2] is T2, OBRs-YFP fusion protein (short form of the leptin receptor fused at its C-terminal end to YFP) (human).
T2 construct: also called OB-R-YFP; acceptor fusion protein
The test can be described thus: BRET in living cells, fusion proteins expressed in equimolar amounts. How it is done:
48 hours after transfection, HeLa, COS and HEK 293 cells expressing OBR were detached and washed with PBS. 1-2×10⁵ cells were distributed into 96-well optical plates (Packard Instrument Company, Meriden, Conn.) in the presence or absence of ligands, at 25° C. Membranes prepared from cells expressing OBR were used for the measurements of BRET. The substrate, coelenterazine h (Molecular Probes, Eugene, Oreg.), was added at a final concentration of 5 μM and the reading was carried out with a Fusion™ fluoro/luminometer (Packard Instrument Company, Meriden, Conn.), which permits the sequential integration of the luminescence signals detected with two filters (Luc filter: 485+10 nm; YFP filter: 530±12.5 nm). The BRET ratio is defined as the difference in the emission at 530 nm/485 nm of the cotransfected Luc and YFP fusion proteins and the emission at 530 nm/485 nm of the Luc fusion protein alone. The results are expressed in milliBRET units (mBU), 1 mBRET unit corresponding to the value of the BRET ratio multiplied by 1 000. The following ligands were used to determine the specificity of the assay: recombinant human erythropoietin (EPO), insulin (Ins), lipopolysaccharide (LPS, Sigma Aldrich, St. Louis, USA), recombinant human trombopoietin (TPO), GM-CSF, interleukin 3 (IL3), interleukin 6 (IL6), prolactin (PRL), SCF, EGF and TNFα. […]

B1: OBRs-Luc fusion protein (short form of the leptin receptor fused at its C-terminal end to Renilla luciferase) (receptor)
chain: ASISARQEQKLISEEDLTRYPITPWRFKLSCMPPNSTYDYFLLPAGLSKNTSNSNGHYETAVEPKFNSSGTHFSNLSKTTFHCCFRSEQDRNCSLCADNIEGTTFVSTVNSLVFQQIDANWNIQCWLKGDLKLFICYVESLFKNLFRNYNYKVHLLYVLPEVLEDSPLVPQKGSFQMVHCNCSVHECCECLVPVPTAKLNDTLLMCLKITSGGVIFRSPLMSVQPINMVKPDPPLGLHMEITDDGNLKISWSSPPLVPFPLQYQVKYSENSTTVIREADKIVSATSLLVDSILPGSSYEVQVRGKRLDGPGIWSDWSTPRVFTTQDVIYFPPKILTSVGSNVSFHCIYKKENKIVPSKEIVWWMNLAEKIPQSQYDVVSDHVSKVTFFNLNETKPRGKFTYDAVYCCNEHECHHRYAELYVIDVNINISCETDGYLTKMTCRWSTSTIQSLAESTLQLRYHRSSLYCSDIPSIHPISEPKDCYLQSDGFYECIFQPIFLLSGYTMWIRINHSLGSLDSPPTCVLPDSVVKPLPPSSVKAEITINIGLLKISWEKPVFPENNLQFQIRYGLSGKEVQWKMYEVYDAKSKSVSLPVPDLCAVYAVQVRCKRLDGLGYWSNWSNPAYTVVMDIKVPMRGPEFWRIINGDTMKKEKNVTLLWKPLMKNDSLCSVQRYVINHHTSCNGTWSEDVGNHTKFTFLWTEQAHTVTVLAINSIGASVANFNLTFSWPMSKVNIVQSLSAYPLNSSCVIVSWILSPSDYKLMYFIIEWKNLNEDGEIKWLRISSSVKKYYIHDHFIPIEKYQFSLYPIFMEGVGKPKIINSFTQDDIEKHQSDAGLYVIVPVIISSSILLLGTLLISHQRMKKLFWEDVPNPKNCSWAQGLNFQKRTDILDPPARATMTSKVYDPEQRKRMITGPQWWARCKQMNVLDSFINYYDSEKHAENAVIFLHGNAASSYLWRHVVPHIEPVARCIIPDLIGMGKSGKSGNGSYRLLDHYKYLTAWFELLNLPKKIIFVGHDWGACLAFHYSYEHQDKIKAIVHAESVVDVIESWDEWPDIEEDIALIKSEEGEKMVLENNFFVETMLPSKIMRKLEPEEFAAYLEPFKEKGEVRRPTLSWPREIPLVKGGKPDVVQIVRNYNAYLRASDDLPKMFIESDPGFFSNAIVEGAKKFPNTEFVKVKGLHFSQEDAPDEMGKYIKSFVERVLKNEQ
notes: Expressed in COS, HeLa or HEK 293 cells; also assayed in membranes and extracts; also called OB-R-Luc; donor fusion protein
Consider B1, for which the binding result in test [1] was “no binding”; in test [2], “binds”.
